Data: PMC4215182
Numbering of substitutions follows the chain as printed.

Columns and labels:
[1] = biological target: CPSF complex (CPSF73-3xFlag immunopurified) (human? (HEK293), UniProt Q10570;Q9C0J8;Q9P2I0;Q9UKF6;Q6UN15;O95639;Q92797 …); experiment: EMSA
Flag-CPSF30 full length = Flag-CPSF30 full length (UniProt O95639-2 1-244); experiment: UV cross-linking
[2] = biological target: Flag-CPSF30 (baculovirus) (UniProt O95639-2 1-244); experiment: UV cross-linking
[3] = biological target: CPSF complex with HA-CPSF30 full length (human? (HEK293), UniProt Q10570;Q9C0J8;Q9P2I0;Q9UKF6;Q6UN15;O95639-2;Q92797 …); experiment: UV cross-linking
[4] = biological target: T1, Wdr33 (within CPSF complex) (human? (HEK293), UniProt Q9C0J8 1-1336); experiment: UV cross-linking
T1 sequence: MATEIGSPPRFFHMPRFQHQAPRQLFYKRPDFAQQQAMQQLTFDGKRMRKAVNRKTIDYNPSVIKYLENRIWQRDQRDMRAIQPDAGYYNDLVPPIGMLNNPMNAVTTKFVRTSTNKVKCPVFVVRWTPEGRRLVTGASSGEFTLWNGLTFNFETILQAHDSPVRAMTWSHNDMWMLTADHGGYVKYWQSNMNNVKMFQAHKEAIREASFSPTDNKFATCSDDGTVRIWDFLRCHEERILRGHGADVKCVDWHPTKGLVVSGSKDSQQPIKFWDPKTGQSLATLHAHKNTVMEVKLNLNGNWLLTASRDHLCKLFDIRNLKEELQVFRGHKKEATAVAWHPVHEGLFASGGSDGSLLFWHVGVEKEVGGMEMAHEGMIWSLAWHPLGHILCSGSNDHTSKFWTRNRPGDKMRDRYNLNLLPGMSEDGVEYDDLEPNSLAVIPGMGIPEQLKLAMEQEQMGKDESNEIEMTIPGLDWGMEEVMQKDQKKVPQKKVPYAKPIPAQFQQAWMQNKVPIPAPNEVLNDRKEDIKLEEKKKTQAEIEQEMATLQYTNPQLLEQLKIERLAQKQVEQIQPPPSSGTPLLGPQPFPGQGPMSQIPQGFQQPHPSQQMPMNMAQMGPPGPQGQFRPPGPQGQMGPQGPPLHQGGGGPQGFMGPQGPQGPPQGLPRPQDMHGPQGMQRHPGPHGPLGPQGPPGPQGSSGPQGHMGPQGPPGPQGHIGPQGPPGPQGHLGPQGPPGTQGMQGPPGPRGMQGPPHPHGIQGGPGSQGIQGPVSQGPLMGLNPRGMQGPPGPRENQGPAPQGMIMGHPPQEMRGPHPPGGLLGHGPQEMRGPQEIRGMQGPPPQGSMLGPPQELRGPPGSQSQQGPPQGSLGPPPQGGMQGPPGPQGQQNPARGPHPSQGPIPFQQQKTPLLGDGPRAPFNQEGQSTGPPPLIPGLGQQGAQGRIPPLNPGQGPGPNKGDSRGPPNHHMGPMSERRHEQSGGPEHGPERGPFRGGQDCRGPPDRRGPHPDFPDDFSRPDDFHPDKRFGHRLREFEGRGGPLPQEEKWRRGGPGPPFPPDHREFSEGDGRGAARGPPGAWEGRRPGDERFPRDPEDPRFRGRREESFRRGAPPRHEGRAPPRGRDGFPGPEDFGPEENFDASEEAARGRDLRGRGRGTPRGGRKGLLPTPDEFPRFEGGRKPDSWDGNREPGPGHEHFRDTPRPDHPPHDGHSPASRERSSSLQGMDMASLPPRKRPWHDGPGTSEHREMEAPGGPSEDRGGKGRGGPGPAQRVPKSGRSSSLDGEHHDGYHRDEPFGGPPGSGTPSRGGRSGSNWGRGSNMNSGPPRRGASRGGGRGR

[5] = biological target: T2, CPSF30 (within CPSF complex) (human? (HEK293), UniProt O95639 1-269); experiment: UV cross-linking
[6] = biological target: T2, CPSF30 (within CPSF complex); experiment: UV cross-linking, RNase, IP
[7] = biological target: T3, Fip1 (within CPSF complex) (human? (HEK293), UniProt Q6UN15 1-594); experiment: UV cross-linking, RNase I, IP
T3 sequence: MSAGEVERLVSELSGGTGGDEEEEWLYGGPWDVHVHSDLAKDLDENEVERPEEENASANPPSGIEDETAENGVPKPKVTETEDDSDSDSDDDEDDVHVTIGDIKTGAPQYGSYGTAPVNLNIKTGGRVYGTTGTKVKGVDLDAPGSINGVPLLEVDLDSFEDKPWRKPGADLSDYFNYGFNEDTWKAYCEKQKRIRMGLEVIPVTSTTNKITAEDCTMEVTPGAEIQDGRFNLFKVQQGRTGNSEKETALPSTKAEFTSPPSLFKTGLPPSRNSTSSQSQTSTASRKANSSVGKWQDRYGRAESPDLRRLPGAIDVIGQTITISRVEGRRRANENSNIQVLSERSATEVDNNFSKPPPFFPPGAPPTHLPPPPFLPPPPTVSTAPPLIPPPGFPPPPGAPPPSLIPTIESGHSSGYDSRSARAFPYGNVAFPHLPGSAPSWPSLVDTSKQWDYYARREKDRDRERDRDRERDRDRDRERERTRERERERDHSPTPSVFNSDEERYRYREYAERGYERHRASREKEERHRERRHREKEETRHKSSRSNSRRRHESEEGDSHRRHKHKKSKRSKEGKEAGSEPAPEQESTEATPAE

[8] = biological target: T1, Wdr33 (within CPSF complex); experiment: UV cross-linking, RNase, IP

B1: SVL wild type (ssRNA)
RNA: CUGCAAUAAACAAGUUAA
[1]
  binding result: binds
Flag-CPSF30 full length
  binding result: binds
[2]
  binding result: binds
[3]
  binding result: binds

B2: L3 mutant (AAUAAC) (ssRNA)
RNA: AUGUACUAGGAGACACAAUAACGGCAAUGUUUUUAUUUGUA
[4]
  binding result: no binding
[5]
  binding result: no binding

B3: L3 wild type (ssRNA)
RNA: B2 RNA with C22A
[6]
  binding result: binds
[7]
  binding result: binds
[8]
  binding result: binds

B4: SVL mutant (AAGAAA) (ssRNA)
RNA: CUGCAAGAAACAAGUUAA
[1]
  binding result: no binding
